In publication PMC5510989:

B1: MBP-DDX1 WT (DEAD-Box Protein 1 fused to maltose binding protein) (enzyme)
chain: MAAFSEMGVMPEIAQAVEEMDWLLPTDIQAESIPLILGGGDVLMAAETGSGKTGAFSIPVIQIVYETLKDQQEGKKGKTTIKTGASVLNKWQMNPYDRGSAFAIGSDGLCCQSREVKEWHGCRATKGLMKGKHYYEVSCHDQGLCRVGWSTMQASLDLGTDKFGFGFGGTGKKSHNKQFDNYGEEFTMHDTIGCYLDIDKGHVKFSKNGKDLGLAFEIPPHMKNQALFPACVLKNAELKFNFGEEEFKFPPKDGFVALSKAPDGYIVKSQHSGNAQVTQTKFLPNAPKALIVEPSRELAEQTLNNIKQFKKYIDNPKLRELLIIGGVAARDQLSVLENGVDIVVGTPGRLDDLVSTGKLNLSQVRFLVLDEADGLLSQGYSDFINRMHNQIPQVTSDGKRLQVIVCSATLHSFDVKKLSEKIMHFPTWVDLKGEDSVPDTVHHVVVPVNPKTDRLWERLGKSHIRTDDVHAKDNTRPGANSPEMWSEAIKILKGEYAVRAIKEHKMDQAIIFCRTKIDCDNLEQYFIQQGGGPDKKGHQFSCVCLHGDRKPHERKQNLERFKKGDVRFLICTDVAARGIDIHGVPYVINVTLPDEKQNYVHRIGRVGRAERMGLAISLVATEKEKVWYHVCSSRGKGCYNTRLKEDGGCTIWYNEMQLLSEIEEHLNCTISQVEPDIKVPVDEFDGKVTYGQKRAAGGGSYKGHVDILAPTVQELAALEKEAQTSFLHLGYLPNQLFRTF
B2: MBP-DDX1 K52N (enzyme)
chain: MAAFSEMGVMPEIAQAVEEMDWLLPTDIQAESIPLILGGGDVLMAAETGSGNTGAFSIPVIQIVYETLKDQQEGKKGKTTIKTGASVLNKWQMNPYDRGSAFAIGSDGLCCQSREVKEWHGCRATKGLMKGKHYYEVSCHDQGLCRVGWSTMQASLDLGTDKFGFGFGGTGKKSHNKQFDNYGEEFTMHDTIGCYLDIDKGHVKFSKNGKDLGLAFEIPPHMKNQALFPACVLKNAELKFNFGEEEFKFPPKDGFVALSKAPDGYIVKSQHSGNAQVTQTKFLPNAPKALIVEPSRELAEQTLNNIKQFKKYIDNPKLRELLIIGGVAARDQLSVLENGVDIVVGTPGRLDDLVSTGKLNLSQVRFLVLDEADGLLSQGYSDFINRMHNQIPQVTSDGKRLQVIVCSATLHSFDVKKLSEKIMHFPTWVDLKGEDSVPDTVHHVVVPVNPKTDRLWERLGKSHIRTDDVHAKDNTRPGANSPEMWSEAIKILKGEYAVRAIKEHKMDQAIIFCRTKIDCDNLEQYFIQQGGGPDKKGHQFSCVCLHGDRKPHERKQNLERFKKGDVRFLICTDVAARGIDIHGVPYVINVTLPDEKQNYVHRIGRVGRAERMGLAISLVATEKEKVWYHVCSSRGKGCYNTRLKEDGGCTIWYNEMQLLSEIEEHLNCTISQVEPDIKVPVDEFDGKVTYGQKRAAGGGSYKGHVDILAPTVQELAALEKEAQTSFLHLGYLPNQLFRTF
B3: MBP-DDX1 L303E (enzyme)
chain: MAAFSEMGVMPEIAQAVEEMDWLLPTDIQAESIPLILGGGDVLMAAETGSGKTGAFSIPVIQIVYETLKDQQEGKKGKTTIKTGASVLNKWQMNPYDRGSAFAIGSDGLCCQSREVKEWHGCRATKGLMKGKHYYEVSCHDQGLCRVGWSTMQASLDLGTDKFGFGFGGTGKKSHNKQFDNYGEEFTMHDTIGCYLDIDKGHVKFSKNGKDLGLAFEIPPHMKNQALFPACVLKNAELKFNFGEEEFKFPPKDGFVALSKAPDGYIVKSQHSGNAQVTQTKFLPNAPKALIVEPSRELAEQTENNIKQFKKYIDNPKLRELLIIGGVAARDQLSVLENGVDIVVGTPGRLDDLVSTGKLNLSQVRFLVLDEADGLLSQGYSDFINRMHNQIPQVTSDGKRLQVIVCSATLHSFDVKKLSEKIMHFPTWVDLKGEDSVPDTVHHVVVPVNPKTDRLWERLGKSHIRTDDVHAKDNTRPGANSPEMWSEAIKILKGEYAVRAIKEHKMDQAIIFCRTKIDCDNLEQYFIQQGGGPDKKGHQFSCVCLHGDRKPHERKQNLERFKKGDVRFLICTDVAARGIDIHGVPYVINVTLPDEKQNYVHRIGRVGRAERMGLAISLVATEKEKVWYHVCSSRGKGCYNTRLKEDGGCTIWYNEMQLLSEIEEHLNCTISQVEPDIKVPVDEFDGKVTYGQKRAAGGGSYKGHVDILAPTVQELAALEKEAQTSFLHLGYLPNQLFRTF
B4: MBP-DDX1 L322E (enzyme)
chain: MAAFSEMGVMPEIAQAVEEMDWLLPTDIQAESIPLILGGGDVLMAAETGSGKTGAFSIPVIQIVYETLKDQQEGKKGKTTIKTGASVLNKWQMNPYDRGSAFAIGSDGLCCQSREVKEWHGCRATKGLMKGKHYYEVSCHDQGLCRVGWSTMQASLDLGTDKFGFGFGGTGKKSHNKQFDNYGEEFTMHDTIGCYLDIDKGHVKFSKNGKDLGLAFEIPPHMKNQALFPACVLKNAELKFNFGEEEFKFPPKDGFVALSKAPDGYIVKSQHSGNAQVTQTKFLPNAPKALIVEPSRELAEQTLNNIKQFKKYIDNPKLRELEIIGGVAARDQLSVLENGVDIVVGTPGRLDDLVSTGKLNLSQVRFLVLDEADGLLSQGYSDFINRMHNQIPQVTSDGKRLQVIVCSATLHSFDVKKLSEKIMHFPTWVDLKGEDSVPDTVHHVVVPVNPKTDRLWERLGKSHIRTDDVHAKDNTRPGANSPEMWSEAIKILKGEYAVRAIKEHKMDQAIIFCRTKIDCDNLEQYFIQQGGGPDKKGHQFSCVCLHGDRKPHERKQNLERFKKGDVRFLICTDVAARGIDIHGVPYVINVTLPDEKQNYVHRIGRVGRAERMGLAISLVATEKEKVWYHVCSSRGKGCYNTRLKEDGGCTIWYNEMQLLSEIEEHLNCTISQVEPDIKVPVDEFDGKVTYGQKRAAGGGSYKGHVDILAPTVQELAALEKEAQTSFLHLGYLPNQLFRTF
B5: MBP-DDX1 G325E (enzyme)
chain: MAAFSEMGVMPEIAQAVEEMDWLLPTDIQAESIPLILGGGDVLMAAETGSGKTGAFSIPVIQIVYETLKDQQEGKKGKTTIKTGASVLNKWQMNPYDRGSAFAIGSDGLCCQSREVKEWHGCRATKGLMKGKHYYEVSCHDQGLCRVGWSTMQASLDLGTDKFGFGFGGTGKKSHNKQFDNYGEEFTMHDTIGCYLDIDKGHVKFSKNGKDLGLAFEIPPHMKNQALFPACVLKNAELKFNFGEEEFKFPPKDGFVALSKAPDGYIVKSQHSGNAQVTQTKFLPNAPKALIVEPSRELAEQTLNNIKQFKKYIDNPKLRELLIIEGVAARDQLSVLENGVDIVVGTPGRLDDLVSTGKLNLSQVRFLVLDEADGLLSQGYSDFINRMHNQIPQVTSDGKRLQVIVCSATLHSFDVKKLSEKIMHFPTWVDLKGEDSVPDTVHHVVVPVNPKTDRLWERLGKSHIRTDDVHAKDNTRPGANSPEMWSEAIKILKGEYAVRAIKEHKMDQAIIFCRTKIDCDNLEQYFIQQGGGPDKKGHQFSCVCLHGDRKPHERKQNLERFKKGDVRFLICTDVAARGIDIHGVPYVINVTLPDEKQNYVHRIGRVGRAERMGLAISLVATEKEKVWYHVCSSRGKGCYNTRLKEDGGCTIWYNEMQLLSEIEEHLNCTISQVEPDIKVPVDEFDGKVTYGQKRAAGGGSYKGHVDILAPTVQELAALEKEAQTSFLHLGYLPNQLFRTF

Biological target: HIV-1 Rev (Regulator of Expression of Virion), Alexa-labelled (HIV-1 isolate BH10)
Experiment: fluorescence polarisation

“MBP-DDX1 DEAD N-term + SPRY (domain or fragment)” and B1 are within 1.5-fold of each other in Kd: 43 nM for the first, 59 nM for the second.

First: B2
Second: B3
The Kd of the first is lower: 65 nM for the first, greater than 700 nM for the second. The first binds more tightly here.

Compared with B4, B5 is lower in Kd: greater than 500 nM for the first, 29 nM for the second. The second binds more tightly here.
